IntAct's records for PubMed 10398681

B1: Protein TRANSPORT INHIBITOR RESPONSE 1 (Arabidopsis thaliana (Mouse-ear cress)), Q570C0 (parent)
chain: MQKRIALSFPEEVLEHVFSFIQLDKDRNSVSLVCKSWYEIERWCRRKVFIGNCYAVSPATVIRRFPKVRSVELKGKPHFADFNLVPDGWGGYVYPWIEAMSSSYTWLEEIRLKRMVVTDDCLELIAKSFKNFKVLVLSSCEGFSTDGLAAIAATCRNLKELDLRESDVDDVSGHWLSHFPDTYTSLVSLNISCLASEVSFSALERLVTRCPNLKSLKLNRAVPLEKLATLLQRAPQLEELGTGGYTAEVRPDVYSGLSVALSGCKELRCLSGFWDAVPAYLPAVYSVCSRLTTLNLSYATVQSYDLVKLLCQCPKLQRLWVLDYIEDAGLEVLASTCKDLRELRVFPSEPFVMEPNVALTEQGLVSVSMGCPKLESVLYFCRQMTNAALITIARNRPNMTRFRLCIIEPKAPDYLTLEPLDIGFGAIVEHCKDLRRLSLSGLLTDKVFEYIGTYAKKMEMLSVAFAGDSDLGMHHVLSGCDSLRKLEIRDCPFGDKALLANASKLETMRSLWMSSCSVSFGACKLLGQKMPKLNVEVIDERGAPDSRPESCPVERVFIYRTVAGPRFDMPGFVWNMDQDSTMRFSRQIITTNGL

Variants of: B1
Settings: with skp1b_arath SKP1B

Row | effect of a mutation on the interaction | Variant
1 | decreasing interaction | P10A
